Test results as given in US20210061914A1 (published 2021).

B1: scFv G8-P1A06 (scFv, V domains shown)
VH: QVQLVQSGAEVKKPGASVKVSCKASGYTFTNYYMHWVRQAPGQGLEWMGWMNPIGGGTGYAQKFQGRVTMTRDTSTSTVYMELSSLRSEDTAVYYCARVYDFWSVLSGFDIWGQGTLVTVSS
VL: DIQMTQSPSSLSASVGDRVTITCRASQAISNSLAWYQQKPGKAPKLLIYAASTLQSGVPSRFSGSGSGTDFTLTISSLQPEDFATYYCGQSYSTPPTFGQGTKLEIK
notes: scFv
B2: scFv G8-P1A04 (scFv, V domains shown)
VH: QVQLVQSGAEVKKPGASVKVSCKASGYPFIGQYLHWVRQAPGQGLEWMGIINPSGDSATYAQKFQGRVTMTRDTSTSTVYMELSSLRSEDTAVYYCARDLSYYYGMDVWGQGTTVTVSS
VL: DIQMTQSPSSLSASVGDRVTITCWASQGISSYLAWYQQKPGKAPKLLIYAASSLQSGVPSRFSGSGSGTDFTLTISSLQPEDFATYYCQQSYNTPWTFGPGTKVDIK
notes: scFv
B3: scFv G8-P1B03 (scFv, V domains shown)
VH: EVQLLESGGGLVQPGGSLRLSCAASGFTFSDYYMSWVRQAPGKGLEWVSGINWNGGSTGYADSVKGRFTISRDNSKNTLYLQMNSLRAEDTAVYYCARVEQGYDIYYYYYMDVWGKGTTVTVSS
VL: DIQMTQSPSSLSASVGDRVTITCRASQSISSYLNWYQQKPGKAPKLLIYKASSLESGVPSRFSGSGSGTDFTLTISSLQPEDFATYYCQQSYSAPYTFGPGTKVDIK
notes: scFv
B4: scFv G8-P1A03 (scFv, V domains shown)
VH: QVQLVQSGAEVKKPGASVKVSCKASGGTFSRSAITWVRQAPGQGLEWMGWINPNSGATNYAQKFQGRVTMTRDTSTSTVYMELSSLRSEDTAVYYCARDDYGDYVAYFQHWGQGTLVTVSS
VL: DIQMTQSPSSLSASVGDRVTITCRASQSITSYLNWYQQKPGKAPKLLIYDASNLETGVPSRFSGSGSGTDFTLTISSLQPEDFATYYCQQNYNSVTFGQGTKLEIK
notes: scFv
B5: scFv R3G10-P1B07 (scFv, V domains shown)
VH: QVQLVQSGAEVKKPGASVKVSCKASGYTFTSYYMHWVRQAPGQGLEWMGIIHPGGGTTSYAQKFQGRVTMTRDTSTSTVYMELSSLRSEDTAVYYCARDKVYGDGFDPWGQGTLVTVSS
VL: DIQMTQSPSSLSASVGDRVTITCRASQSISRWLAWYQQKPGKAPKLLIFDASRLQSGVPSRFSGSGSGTDFTLTISSLQPEDFATYYCQQAEAFPYTFGQGTKVEIK
notes: scFv
B6: scFv R3G10-P2G11 (scFv, V domains shown)
VH: QVQLVQSGAEVKKPGASVKVSCKASGGTFSTHDINWVRQAPGQGLEWMGVINPSGGSAIYAQKFQGRVTMTRDTSTSTVYMELSSLRSEDTAVYYCARDRGYSYGYFDYWGQGTLVTVSS
VL: DIQMTQSPSSLSASVGDRVTITCRASQDISRYLAWYQQKPGKAPKLLIYDASNLETGVPSRFSGSGSGTDFTLTISSLQPEDFATYYCQQANSFPRTFGQGTKVEIK
notes: scFv
B7: scFv R3G10-P4E07 (scFv, V domains shown)
VH: QVQLVQSGAEVKKPGSSVKVSCKASGYTFTGYYMHWVRQAPGQGLEWMGRISPSDGSTTYAPKFQGRVTITADESTSTAYMELSSLRSEDTAVYYCARDMGDAFDIWGQGTTVTVSS
VL: not shown
notes: scFv
B8: scFv R3G10-P1E12 (scFv, V domains shown)
VH: QVQLVQSGAEVKKPGASVKVSCKASGYIFTGYYMHWVRQAPGQGLEWMGMIGPSDGSTSYAQKFQGRVTMTRDTSTSTVYMELSSLRSEDTAVYYCAREDDSMDVWGKGTTVTVSS
VL: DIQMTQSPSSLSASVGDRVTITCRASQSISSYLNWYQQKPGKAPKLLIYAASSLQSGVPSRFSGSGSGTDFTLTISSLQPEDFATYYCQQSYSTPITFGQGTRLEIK
notes: scFv
B9: scFv R3G10-P4E12 (scFv, V domains shown)
VH: QVQLVQSGAEVKKPGASVKVSCKASGYTFTGYYMHWVRQAPGQGLEWMGMIGPSDGSTSYAQRFQGRVTMTRDTSTSTVYMELSSLRSEDTAVYYCAREEDGMDVWGQGTTVTVSS
VL: DIQMTQSPSSLSASVGDRVTITCRASQGISTYLAWYQQKPGKAPKLLIYDASSLQSGVPSRFSGSGSGTDFTLTISSLQPEDFATYYCQQYYSYPWTFGQGTRLEIK
notes: scFv
B10: scFv R3G10-P1F06 (scFv, V domains shown)
VH: QVQLVQSGAEVKKPGASVKVSCKASGYTFIGYYMHWVRQAPGQGLEWMGMIGPSDGSTSYAQKFQGRVTMTRDTSTSTVYMELSSLRSEDTAVYYCARDSSGLDPWGQGTLVTVSS
VL: DIQMTQSPSSLSASVGDRVTITCRASQSISNYLNWYQQKPGKAPKLLIYKASSLESGVPSRFSGSGSGTDFTLTISSLQPEDFATYYCQQSYIIPYTFGQGTKLEIK
notes: scFv
B11: scFv R3G10-P5C08 (scFv, V domains shown)
VH: QVQLVQSGAEVKKPGASVKVSCKASGYNFTGYYMHWVRQAPGQGLEWMGIIAPSDGSTNYAQKFQGRVTMTRDTSTSTVYMELSSLRSEDTAVYYCARETGDDAFDIWGQGTMVTVSS
VL: not shown
notes: scFv
B12: scFv R3G10-P3E04 (scFv, V domains shown)
VH: QVQLVQSGAEVKKPGASVKVSCKASGNTFIGYYVHWVRQAPGQGLEWVGIINPNGGSISYAQKFQGRVTMTRDTSTSTVYMELSSLRSEDTAVYYCARGSGDPNYYYYYGLDVWGQGTTVTVSS
VL: DIQMTQSPSSLSASVGDRVTITCQASQDISNYLNWYQQKPGKAPKLLIYAASNLQSGVPSRFSGSGSGTDFTLTISSLQPEDFATYYCQQANSLPYTFGQGTKVEIK
notes: scFv
B13: scFv R3G10-P2C04 (scFv, V domains shown)
VH: QVQLVQSGAEVKKPGASVKVSCKASGGTFSNSIINWVRQAPGQGLEWMGWMNPNSGNTNYAQKFQGRVTMTRDTSTSTVYMELSSLRSEDTAVYYCAREQWPSYWYFDLWGRGTLVTVSS
VL: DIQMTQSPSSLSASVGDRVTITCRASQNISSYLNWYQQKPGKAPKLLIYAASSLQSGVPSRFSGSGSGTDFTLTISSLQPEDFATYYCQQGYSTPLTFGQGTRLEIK
notes: scFv
B14: scFv R3G10-P1A07 (scFv, V domains shown)
VH: EVQLLESGGGLVKPGGSLRLSCAASGFTFSSYWMSWVRQAPGKGLEWVSGISARSGRTYYADSVKGRFTISRDDSKNTLYLQMNSLKTEDTAVYYCARDQDTIFGVVITWFDPWGQGTLVTVSS
VL: DIQMTQSPSSLSASVGDRVTITCRASQGISNYLAWYQQKPGKAPKLLIYAASSLQGGVPSRFSGSGSGTDFTLTISSLQPEDFATYYCQQYFTTPYTFGQGTKLEIK
notes: scFv
B15: scFv R3G10-P1H08 (scFv, V domains shown)
VH: QVQLVQSGAEVKKPGASVKVSCKASGVTFSTSAISWVRQAPGQGLEWMGWISPYNGNTDYAQMLQGRVTMTRDTSTSTVYMELSSLRSEDTAVYYCARDAHQYYDFWSGYYSGTYYYGMDVWGQGTTVTVSS
VL: DIQMTQSPSSLSASVGDRVTITCRASQGISNYLAWYQQKPGKAPKLLIYSASNLQSGVPSRFSGSGSGTDFTLTISSLQPEDFATYYCQQAYSFPWTFGQGTKVEIK
notes: scFv
B16: scFv R3G10-P4C05 (scFv, V domains shown)
VH: QVQLVQSGAEVKKPGASVKVSCKASGYTFTGYYMHWVRQAPGQGLEWMGIIGPSDGSTTYAQKFQGRVTMTRDTSTSTVYMELSSLRSEDTAVYYCARAENGMDVWGQGTTVTVSS
VL: DIQMTQSPSSLSASVGDRVTITCRASQRISSYLNWYQQKPGKAPKLLIYSASTLQSGVPSRFSGSGSGTDFTLTISSLQPEDFATYYCQQSYSTPFTFGPGTKVDIK
notes: scFv
B17: scFv R3G10-P1H01 (scFv, V domains shown)
VH: QVQLVQSGAEVKKPGASVKVSCKASGYTFTGYYMHWVRQAPGQGLEWMGMIGPSDGSTSYAQKFQGRVTMTRDTSTSTVYMELSSLRSEDTAVYYCARGVGNLDYWGQGTLVTVSS
VL: DIQMTQSPSSLSASVGDRVTITCRASQSISNYLNWYQQKPGKAPKLLIYAASSLQSGVPSRFSGSGSGTDFTLTISSLQPEDFATYYCHQTYSTPLTFGQGTKVEIK
notes: scFv
B18: scFv R3G10-P4D10 (scFv, V domains shown)
VH: QVQLVQSGAEVKKPGASVKVSCKASGYTFTGYYLHWVRQAPGQGLEWMGMIGPSDGSTSYAQKFQGRVTMTRDTSTSTVYMELSSLRSEDTAVYYCARDGDAFDIWGQGTMVTVSS
VL: DIQMTQSPSSLSASVGDRVTITCRASQGISSWLAWYQQKPGKAPKLLIYDASNLETGVPSRFSGSGSGTDFTLTISSLQPEDFATYYCQQSYSTPLTFGGGTKVEIK
notes: scFv
B19: scFv R3G10-P4A02 (scFv, V domains shown)
VH: QVQLVQSGAEVKKPGASVKVSCKASGYTLSYYYMHWVRQAPGQGLEWMGMIGPSDGSTSYAQRFQGRVTMTRDTSTGTVYMELSSLRSEDTAVYYCARDTGDHFDYWGQGTLVTVSS
VL: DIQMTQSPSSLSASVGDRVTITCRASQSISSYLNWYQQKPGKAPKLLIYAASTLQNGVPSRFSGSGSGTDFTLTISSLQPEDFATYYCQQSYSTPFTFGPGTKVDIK
notes: scFv
B20: scFv R3G10-P4G06 (scFv, V domains shown)
VH: QVQLVQSGAEVKKPGASVKVSCKASGYTLSYYYMHWVRQAPGQGLEWMGMIGPSDGSTSYAQRFQGRVTMTRDTSTGTVYMELSSLRSEDTAVYYCARDTGDHFDYWGQGTLVTVSS
VL: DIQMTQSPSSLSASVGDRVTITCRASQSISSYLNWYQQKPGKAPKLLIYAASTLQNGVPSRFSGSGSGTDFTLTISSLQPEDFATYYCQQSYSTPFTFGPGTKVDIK
notes: scFv; printed VH and VL equal those of R3G10-P4A02
B21: scFv R3G10-P5A08 (scFv, V domains shown)
VH: QVQLVQSGAEVKKPGSSVKVSCKASGGTFNNFAISWVRQAPGQGLEWMGGIIPIFDATNYAQKFQGRVTFTADESTSTAYMELSSLRSEDTAVYYCARGEYSSGFFFVGWFDLWGRGTQVTVSS
VL: not shown
notes: scFv
B22: scFv R3G10-P4D04 (scFv, V domains shown)
VH: QVQLVQSGAEVKKPGASVKVSCKASGYTFTGYYVHWVRQAPGQGLEWMGIIAPSDGSTNYAQKFQGRVTMTRDTSTSTVYMELSSLRSEDTAVYYCARDPGGYMDVWGKGTTVTVSS
VL: DIQMTQSPSSLSASVGDRVTITCRASQSISSYLAWYQQKPGKAPKLLIYDASKLETGVPSRFSGSGSGTDFTLTISSLQPEDFATYYCQQSYGVPTFGQGTKLEIK
notes: scFv

molecular target: HLA-A*02:01_… (HLA-PEPTIDE target G8), soluble (human, enzymatically biotinylated (BirA) for screening and BLI); experiment: scFv PPE ELISA

Fold selective binding, target pHLA vs minipool of negative control pHLAs, ≥ 3 fold:
B1
B2
B3
B4

molecular target: HLA-A*01:01_… (HLA-PEPTIDE target G10), soluble (human, enzymatically biotinylated (BirA)); experiment: scFv PPE ELISA

Fold selective binding, target pHLA vs minipool of negative control pHLAs, ≥ 3 fold:
B5
B6
B7
B8
B9
B10
B11
B12
B13
B14
B15
B16
B17
B18
B19
B20
B21
B22
